Source: patent US20190300580A1

Key:
[1] = biological target: wild type dengue serotype 2 exodomain, HEK293-produced (The Native Antigen Company DENV2-ENV) (dengue virus serotype 2); experiment: ELISA, His-tagged exodomain captured by anti-His-tag antibody, 4G2 titrated (FIG. 5a)
[2] = biological target: wild type dengue serotype 4 exodomain (The Native Antigen Company DENV4-ENV) (dengue virus serotype 4); experiment: as above
[3] = biological target: Dengue serotype 3 VLP (The Native Antigen Company), wild type (dengue virus serotype 3); experiment: competition ELISA on VLP, unlabelled 4G2 at 10 micrograms per ml against biotinylated 4G2

Substance: fusion-loop antibody 4G2 (The Native Antigen Company AbFLAVENV-4G2)
- low antibody concentration still giving a signal above background [1]: 250 pg/mL
- low antibody concentration still giving a signal above background [2]: 250 pg/mL
- % inhibition [3]: 80%
